# Experiment: soluble on expression in E. coli; label from the status in PepcDB or PDB records
row,Sequence,soluble on expression in E. coli
1,MSLNNYPFASMRDCFDMSAYFVVGPQDCKGRPVTDVVDDALRGGATFIQLRAKNADAKDITEMARDIAQVIKNSGKSDSVAFVIDDRVDVVWQARDKGIKVDGVHIGQTDMEPQEARALLGEDAIVGLSAETESLVKLINELPSGCIDYIGAGPLHVSTTKPEASVGGNDGSGHTLDEEQINAICAASEFPVVVGGGVHADDMEMLARSKAAGWFVVSAIAGADDPEAATREMVTRWKAVRGDAEGHHHHHH,soluble
2,MTAPFNALLIANRGEIAIRIARACADLGIRSVAVFAEDDAASLHVRKADVALPLAGRGVAAYLDMDRLVALALEQGCEAIHPGYGFLAENGEFARRCQRAGIHFVGPQAEVLDLFGDKAAARALAERLEVPLVAGINRAVSVEEAEAFLEGLGDGAAVMLKALAGGGGRGMRAVEEVAQLADAYRRCRAEAQAAFGRDELYVEQRVARARHIEVQVLGDGSGAVSHLWERDCSLQRRQQKLLEIAPSPDLPEATREALIDCALRMAGAVRYRGIGTFEFLVDDERPGRFYFMEANPRIQVEHTVTEEVTGVDLLHAQLRLAAGMELAALGLERPPAIGGCAVQLRINLETLAADGSARPAVGTIGAYEPPSGPGLRVDGYGYAGYRVSPSYDSLLAKLVVRGADYPAALRRAYRALCEFRLEGVASNLDLLRNLLLHPAVQANRVDTRFVESHLETLLAPIPASHPRLRAECPLAEDAAPARVEAPLGSLPLSAPSSGVLVALEVADGERVRAGQRVAILEAMKMEFEVKAPGGGIVRRLAASLGEPLEEGATLLFLEPTEDDDEQAPTEQALDLAHIRADLAEVLERQAALGDERRPQALARRRKTGQRTARENVLDLLDEGSFSEYGGFALAAQRRRRSAEELLELSPADGLVAGTGTVGAASFGVQAARCLVLAYDYTVFAGTQGVMNHKKTDRLLGLAEQWRLPLVLFAEGGGGRPGDTDFVGVAGLDCHTFVGMARLSGLVPLVGVVSGRCFAGNAALLGCCDVIIATRDATIGMAGPAMIEGGGLGRFAAEEVGPTGVQGPNGVIDVLVEDEAEAVAVARRYLGYFQGPLPDWSCADQRELRHLVPENRLRAYDIRQAIEVLADRGSVLELRRQFAPGLVTALLRIEGRAFGLIANNPGHLGGAIDAAAGDKAARFMQLCDAFDIPIVSLCDTPGFMVGPEAEKQATVRHVSRMFVSAASLTVPFFTVVLRKGYGLGAQAMAAGSFHSPLFTVAWPSGEFGAMGLEGAVRLGFAKELAAEEDPQRREALFRGMVDKAYRNGKALNMASYLEIDAVIDPAETRAWLLRGLAVAGEPAPRAGRKRPF,not soluble
3,MSKRNTPQRRHNILALLNEQGEVSVDELAKRFETSEVTIRKDLAALESNGLLLRRYGGAITMPQELVSDIGQPVSLYKQAIARAAVQRIREHARIIIDSGSTTAAMIPELGLQPGLVVMTNSLNVANALSELEHEPVLLMTGGTWDPHSESFQGQVAEQVLRSYDFDQLFIGADGIDLARGTTTFNELLGLSRVMAEVAREVVVMVESDKIGRKIPNLELPWSSVHTLITDDRLPLEVRDQIQARGITLICAAVSLEHHHHHH,soluble
4,MSLMKFIIKLFPEITIKSQSVRLRFIKILTGNIRNVLKHYDETLAVVRHWDNIEVRAKDENQRLAIRDALTRIPGIHHILEVEDVPFTDMHDIFEKALVQYRDQLEGKTFCVRVKRRGKHDFSSIDVERYVGGGLNQHIESARVKLTNPDVTVHLEVEDDRLLLIKGRYEGIGGFPIGTQEDVLSLISGGFDSGVSSYMLMRRGCRVHYCFFNLGGAAHEIGVRQVAHYLWNRFGSSHRVRFVAINFEPVVGEILEKIDDGQMGVILKRMMVRAASKVAERYGVQALVTGEALGQVSSQTLTNLRLIDNVSDTLILRPLISYDKEHIINLARQIGTEDFARTMPEYCGVISKSPTVKAVKSKIEAEEEKFDFSILDKVVEEANNVDIREIAQQTEQEVVEVETVNGFGPNDVILDIRSIDEQEDKPLKVEGIDVVSLPFYKLSTKFGDLDQNKTWLLWCERGVMSRLQALYLREQGFNNVKVYRPEGGSHHHHHH,soluble
5,GPGSMRSASAYGLDGQARSLCSLYHPSLNSQECHRFLIGTANPSADNKIHLIEYQDDTKSLECATVWSHNDPVMGLWCSPSLSADSLLAVSSLRKLVVFQISENVLNEPKCIATMNKNYSRVLWDLDGLQREFRAVHQNTLTTVFLSSSKLGSETVNYTSSGGFIRCAALAPYDPNLCLISCDSDGLQLVDLRSKKASSFATTKYSHGFGYTTAVDFDRLKPGQFLSAGTDGYVYIHDIRYNTSCSLAILRHMKAHEHAVQSCSFNSFRDELVLSCSSDQTLKLWDVEHNNEPKCLRRLADYGDSVVALCWSGNSPWVFAGLSFNGKLLVDTVPNEKKMSILLDEKKWCET,not soluble
6,MGSDKIHHHHHHMNQHIKGKHLSFEERVIIQLRLKDGYSLRAIARELNCSPSTISYEVKRGTVELYGKVKRYKATQGHDAYQAHRKNCGRKSDFLRKTQFMRYVHKHFFKDGWSLDVCSNRATAVGAFSSRDVVCTKTLYNYVDQGLLDIHNYDLPEKLKRNTKLHRIRKNKKKLGRSIEERPKEINKRNEFGHWECDLVLGHKCTDDEVLLALSERMSREFLILRIPDKTSVSVMQAFKELQRQYSEHWNDIFKTITTDNGSEFADLSNLEKASNTLVYYAHPYTSCDKGTVERHNGLIRRFIPKEEAIANYSLQDIINIETWCNSLPRKILAYHTPDEIFERELDLIYQAA,not soluble
7,MSLASRRTDLIGMIVPDARQPFFGEMAHAVEQAAAERGKMVLVGNSDYVAEREVHYLRAFLGMRVSGLILVSHALNNQAAAEIEAWDARVVLLHERPELIDDVAVVTDDIGGAQLATRHLLEHGYAYVACLGGTAETPSVGDPVSDHVEGWRRAMQEAGIPTEGKLFEAPYNRYDAYQVGLELLAGPNRPPAIFCSTDDQAIGVLRAARELRIDVPGELAVAGFDDVKEAALTDPPLTTIASDRSAMARAAVDLVLDDGLRVAGSRRERLKLFPSRLVVRRSCGCAPQETPGSEGHHHHHH,soluble
8,MSLTTSHFIPFPREMVWDWHTRKGAVARLTPPFIPLNPITQAERLADGTTIFSLPAGLKWVARHDLSGFLNGSRFTDVCLTAPVKALANWRHVHNFVDQDGGTLITDSVSTRLPASTLTGMFAYRQTQLIEDLKFLSRTSTLFDGSPLTVAITGSRGLVGRALTAQLQTGGHEVIQLVRKEPKPGKRFWDPLNPASDLLDGADVLVHLAGEPIFGRFNDSHKEAIRESRVLPTKFLAELVAESTQCTTMISASAVGFYGHDRGDEILTEESESGDDFLAEVCRDWEHATAPASDAGKRVAFIRTGVALSGRGGMLPLLKTLFSTGLGGKFGDGTSWFSWIAIDDLTDIYYRAIVDAQISGPINAVAPNPVSNADMTKILATSMHRPAFIQIPSLGPKILLGSQGAEELALASQRTAPAALENLSHTFRYTDIGAAIAHELGYEQLADFAQQQEIEAERKQERAELKAAKKIAKKAPVLEESPTNLEDPEEVEQSILSSILNFRRKRNDLEHHHHHH,soluble
9,MPSSTSSSLENLSVSVCAAGDSAAYQRNSVFGDDVVIVAAYRSPLCKAKRGGLKDTYPDDILAPVLKALIEKTNINPAEVGDIVVGSVLGAGSQRASECRMAAFYAGFPETVPVRTVNRQCSSGLQAVADVAAAIKAGFYDIGIGAGLESMTANPMAWEGSVNPKVKTMAQAQDCLLPMGITSENVAQKFSITRQEQDQAAVGSHRKTAAATAAGRFKDEIIPIKTKIVDPKTGDEKPVTISVDDGIRPGTSLADLAKLKPVFRKDGSTTAGTSSQVSDGAGAVLLMKRSIALQKGLPILGVFRTFAAVGVPPSIMGIGPAVAIPAAVKAAGLQIDDIDLFEINEAFASQFVYCQKKLEIDPQKINVNGGAMAIGHPLGATGARCVATLLHEMKRRGRDCRFGVVSMCIGTGMGAAAVFERGDACDELCNAKAKHHHHHH,soluble
10,MGSDKIHHHHHHMTQDLAQFAAERGIKYFMISYTDLFGAQRAKLVPAQAIADMQKDGAGFAGFATWLDLTPAHPDLFAVPDASSVIQLPWKKDVAWVAADCVMDDKPVEQAPRVMLKKLVDEAASMGLRVKTGVEPEFFLISADGKTISDEFDTAEKPCYDQQALMRRYDVIAEICDHMLELGWKPYQNDHEDANGQFEMNWEYDDALKTADKHSFFKFMVKSVAEKHGLRATFMPKPFKGLTGNGCHAHISVWDNDGKVNAFADKAMPFGLSAKGKTFLGGIMKHASALAAVTNPTVNSYKRINAPRTVSGATWAPNTVTWTGNNRTHMVRVPGPGRFELRLPDGAVNPYLLQAIIIAAGLSGLKTNADPGPHYDIDMYREGHTVTDAPKLPLNLLDALRAYEADTELQQALGEEFSAAYLKLKHGEWTSYCSQFTPWEHQTTLDI,not soluble
11,MSLIYLLNETPFEGVENLILNEIVFYDFSVDLSLYDALICTSKNALKALQHAKITLNFKLNLYAVGQSTAQYAKNLGFKKIKIPSKAYGKDLFLEFKEELKMQKCLYLRAKNIVSTLNLDLKNVGVDLDEMIVYENVFKKGDKKLIHPAIFIFTSPLSVENFLKFYSLKEEDKVVVIGQSTAKKLLNFKNLYICENQSLLNCVKLAKTLVEGHHHHHH,not soluble
12,MSLRVLGIETSCDETGIAIYDDEKGLLANQLYSQVKLHADYGGVVPELASRDHVRKTVPLIQAALKESGLTAKDIDAVAYTAGPGLVGALLVGATVGRSLAFAWDVPAIPVHHMEGHLLAPMLEDNPPEFPFVALLVCGGHTQLISVTGIGQYELLGESIDDAAGEAFDKTAKLLGLDYPGGPLLSKMAAQGTAGRFVFPRPMTDRPGLDFSFSGLKTFAANTIRDNGTDDQTRADIARAFEDAVVDTLMIKCKRALDQTGFKRLVMAGGVSANRTLRAKLAEMMKKRRGEVFYARPEFCTDNGAMIAYAGMVRFKAGATADLGVSVRPRWPLAELPAEGHHHHHH,soluble
13,MDPSLLRERELFKKRALSTPVVEKRSASSESSSSSSKKKKTKVEHGGSSGSKQNSDHSNGSFNLKALSGSSGYKFGVLAKIVNYMKTRHQRGDTHPLTLDEILDETQHLDIGLKQKQWLMTEALVNNPKIEVIDGKYAFKPKYNVRDKKALLRLLDQHDQRGLGGILLEDIEEALPNSQKAVKALGDQILFVNRPDKKKILFFNDKSCQFSVDEEFQKLWRSVTVDSMDEEKIEEYLKRQGISSMQESGPKKVAPIQRRKKPASQKKRRFKTHNEHLAGVLKDYSDITSSK,not soluble
14,MSLGDKKIRIRRTNEQLDKEVISEFEKLVGEFGFGNVNLSALMKAADLEANVFYRRYGSMDNLYDRLAKQYDFWINNTIDISTLNTLGPKKFFAETFKTLFRNLSENSVMQKLLLYEMTTINSTTKRSAETRDVMNLNLITFYENLFAPAKINIKSIASILIGGIYYLILHKECAKICTIDYKTKEGENAFSEGIDFLTDIIFDRLEMYDRDKKAIRQMISDGISESKICKYMGINKNDLKTLLSEGHHHHHH,soluble
15,VQLQQSGTELMKPGRSLKISCKTTGYIFSNYWIEWVKQRPGHGLEWIGKILPGGGSNTYNDKFKGKATFTADTSSNIAYMQLSSLTSEDSAVYYCARGEDYYAYWYVLDYWGQGTTVTVSSGGGGSDIELTQSPLSLPVSLGDQASISCRSSQSLVHSNGNTSLHWYLKKPGQSPKLLIYKVSTRFSGVPDRFSGSGSGTDFTLKISRVEAEDLGVYFCSQSTHVPFTFGSGTKLELK,soluble
16,MGERADTFLAHFNRIEKWMRERLNNPVNMGFSEMTRRLSRKEKGQIAQFEEDLLQMAQLRNAIVHERIADDFVIAEPNEWAVQRIETIEQALTKPEKVVPKFAKRVTAFEITTSLETLLTIIAKKQYSQFPIYEKGVFKGLITVRGIGVWFAIESTKGEVHIANRTVRELLASNYKRSNYQFVSIEATVFEVEQMFREQPRLEAVLISKSGHPNGELVGIVRPRDLASIHREKE,not soluble
17,TGLLLSLIALSLQAAQLTASVDRTRLNAGETVELTLETDDVTQFGKPDMSSLEASFEVRDTRQLNSLKTLDGSSQATTRWIVTLLPRETGSVIIPSLQLGELKSQPLTLQVMQSETKEPTSHLASIFIEASLDQDSVYVQAQAVLTLRVYHSVSLFDDSSLN,soluble
